In the RNAGym collection of RNA variant scans (doi:10.1093/nar/gkz1192):

B1: CPEB3 Ribozyme (parent)
chain: UAACAGGGGGCCACAGCAGAAGCGUUCACGUCGCAGCCCCUGUCAGAUUCUGGUGAAUCUGCGAAUUCUGCUGUAUAUCUC

Variants of: B1
Assay: self-cleavage, relative activity (ratio to wild type); higher = more cleavage; in vitro, sequencing
In short: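 CPEB3 self-cleaving ribozyme mutant libraries were made by rounds of error-prone PCR, barcoded, and transcribed in vitro with T7 RNA polymerase for 5 hours at 37°C. Cleavage occurred during transcription and a 15 min DNase I step before EDTA stop. RNAs were reverse transcribed with template switching and Illumina-sequenced, with DNA sequencing mapping barcodes to variants. Relative activity is the variant's cleaved/total read fraction divided by wild type's (minimum 5 reads), averaged across three batches.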

Row | Variant | self-cleavage
1 | A5G U58C | 0.43
2 | A5U U80G | 1.14
3 | A5U U80C | 1.12
4 | A5U U80A | 1.32
5 | G6A U51A | 0.37
6 | G6A U51C | 0.49
7 | A5U C14A | 1.19
8 | A5U C14U | 0.88
9 | G6A G55U | 0.4
10 | A5U A18G | 0.87
11 | A5U A18U | 0.34
12 | A5U A75G | 0.95
13 | A5G U25C | 0.39
14 | A5G U25G | 0.55
15 | A5G U25A | 0.42
16 | A5U U60A | 0.76
17 | A5U U60C | 0.58
18 | A5U C79U | 1.24
19 | A5G U31C | 0.48
20 | A5G U31G | 0.47
21 | A5G U31A | 0.41
22 | G6A A77C | 0.44
23 | G6A A77G | 0.45
24 | G6A A77U | 0.34

Row | Variant | self-cleavage
25 | G6A G36A | 0.19
26 | A5U A64G | 1.03
27 | A5U A64U | 0.44
28 | A5U A64C | 0.32
29 | A5G U72A | 0.48
30 | A5G U72G | 0.79
31 | A5G U72C | 0.77
32 | A5U G36A | 0.39
33 | A5U A57U | 0.67
34 | A5U A57C | 0.7
35 | A5U A57G | 0.97
36 | A5U U78C | 0.93
37 | A5U U78A | 1.15
38 | A5U G30A | 0.27
39 | A5U G30U | 0.26
40 | A5U G30C | 0.4
41 | A5U G19A | 0.72
42 | A5G U48A | 0.45
43 | A5G U48G | 0.1
44 | A5G U48C | 0.57
45 | A5U C34A | 0.65
46 | A5U C34U | 0.55
47 | G6A U43A | 0.49
48 | G6A U43C | 0.19

Row | Variant | self-cleavage
49 | A5U G33A | 0.27
50 | A5U G33C | 0.16
51 | A5U A15U | 1.1
52 | A5U A15C | 1.18
53 | A5U A15G | 0.93
54 | A5U U58C | 0.61
55 | A5U U58A | 0.53
56 | G6A A57G | 0.34
57 | G6A A57U | 0.29
58 | A5G G46U | 0.4
59 | G6A U26A | 0.19
60 | G6A U26C | 0.2
61 | G6A U49C | 0.15
62 | G6A U49A | 0.08
63 | G6A A47G | 0.46
64 | G6A A47U | 0.32
65 | G6A A28G | 0.29
66 | G6A A28C | 0.15
67 | G6A A28U | 0.4
68 | A5U C12U | 1.14
69 | G6A U48C | 0.18
70 | G6A U66C | 0.29
71 | G6A A20G | 0.48
72 | G6A A20U | 0.07

Row | Variant | self-cleavage
73 | G6A C23G | 0.35
74 | G6A C23U | 0.12
75 | G6A C23A | 0.1
76 | A5G U80C | 0.66
77 | A5G U80A | 0.79
78 | G6A G16A | 0.29
79 | A5U G16U | 0.66
80 | A5U G16A | 1.05
81 | A5U A45G | 1.02
82 | A5U A45U | 0.54
83 | G6A C14U | 0.57
84 | A5U C38A | 0.34
85 | A5U U76A | 1.12
86 | A5U U76C | 1.13
87 | G6A U69G | 0.27
88 | G6A U69A | 0.32
89 | G6A U69C | 0.15
90 | G6A U60C | 0.27
91 | G6A U60A | 0.33
92 | A5U C23U | 0.25
93 | A5U C23G | 0.08
94 | G6A C32A | 0.26
95 | A5G U43A | 0.84
96 | A5G U43G | 0.3

Row | Variant | self-cleavage
97 | A5G U43C | 0.43
98 | A5U A28C | 0.77
99 | A5U A28G | 0.83
100 | A5U A28U | 1.12
101 | A5U C37U | 0.82
102 | G6A U67A | 0.4
103 | G6A U67C | 0.32
104 | A5G G63A | 0.61
105 | A5G G63U | 0.95
106 | A5G G63C | 0.5
107 | G6A C59A | 0.15
108 | A5U C11G | 0.5
109 | A5U | 1.04
110 | A5G U54G | 0.47
111 | A5G U54C | 0.64
112 | A5G U54A | 0.82
113 | A5G U66A | 0.23
114 | A5G U66C | 0.38
115 | A5G U66G | 0.44
116 | A5G U51G | 0.68
117 | A5G U51C | 0.68
118 | A5G U51A | 0.63
119 | A5U U48C | 0.66
120 | G6A C40U | 0.33

Row | Variant | self-cleavage
121 | G6A A18C | 0.44
122 | G6A A18U | 0.23
123 | G6A A18G | 0.31
124 | G6A G61A | 0.34
125 | A5G G55C | 0.65
126 | A5G G55A | 0.37
127 | A5G G55U | 0.26
128 | G6A A13C | 0.4
129 | G6A A13U | 0.28
130 | G6A A13G | 0.35
131 | A5G U41A | 0.32
132 | A5G U41C | 0.5
133 | A5G U41G | 0.28
134 | A5U C39U | 0.95
135 | G6A G7A | 0.09
136 | G6A G7U | 0.07
137 | G6A C29A | 0.05
138 | G6A C29U | 0.08
139 | A5U G61U | 0.72
140 | A5G U78A | 0.88
141 | A5G U78C | 0.63
142 | A5G U78G | 0.91
143 | A5U C59G | 0.37
144 | A5U C59A | 0.43

Row | Variant | self-cleavage
145 | A5G G70C | 0.25
146 | A5G G70U | 0.41
147 | A5G G70A | 0.32
148 | G6A C44U | 0.46
149 | A5U U54A | 1.1
150 | A5U U54C | 1.09
151 | G6A A15C | 0.42
152 | G6A A15G | 0.36
153 | G6A A15U | 0.18
154 | G6A G33U | 0.22
155 | G6A G33A | 0.29
156 | G6A A65G | 0.16
157 | G6A A65U | 0.22
158 | G6A C12U | 0.59
159 | G6A C12A | 0.39
160 | G6A C38A | 0.1
161 | G6A C38U | 0.3
162 | G6A C39A | 0.49
163 | A5U U41A | 0.33
164 | A5U U41C | 0.98
165 | A5G U74A | 1.03
166 | A5G U74C | 1.01
167 | A5G U74G | 1.41
